According to US20250270343A1 (Alector, published 2025):

T1: mouse GPNMB endogenously expressed on B16F10 cells (mouse, UniProt Q99P91 23-574)
T1 construct: whole, on cells; also called moGPNMB
T1 sequence (looked up): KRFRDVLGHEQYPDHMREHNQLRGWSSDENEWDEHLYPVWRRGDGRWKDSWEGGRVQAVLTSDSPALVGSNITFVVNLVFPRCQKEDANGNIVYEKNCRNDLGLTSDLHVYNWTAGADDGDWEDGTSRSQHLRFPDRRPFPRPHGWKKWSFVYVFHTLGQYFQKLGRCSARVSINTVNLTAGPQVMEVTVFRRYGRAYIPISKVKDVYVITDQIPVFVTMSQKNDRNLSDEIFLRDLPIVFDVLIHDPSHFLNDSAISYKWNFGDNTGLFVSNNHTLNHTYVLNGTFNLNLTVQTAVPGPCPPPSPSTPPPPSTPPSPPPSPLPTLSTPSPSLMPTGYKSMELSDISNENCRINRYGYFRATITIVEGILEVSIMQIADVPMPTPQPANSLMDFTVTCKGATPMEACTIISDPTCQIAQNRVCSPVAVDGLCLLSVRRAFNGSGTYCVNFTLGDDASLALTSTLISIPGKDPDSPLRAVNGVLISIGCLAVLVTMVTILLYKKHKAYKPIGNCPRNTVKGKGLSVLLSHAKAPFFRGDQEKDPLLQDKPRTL

T2: full-length untagged human GPNMB expressed on cells (human, UniProt Q14956 23-572)
T2 sequence: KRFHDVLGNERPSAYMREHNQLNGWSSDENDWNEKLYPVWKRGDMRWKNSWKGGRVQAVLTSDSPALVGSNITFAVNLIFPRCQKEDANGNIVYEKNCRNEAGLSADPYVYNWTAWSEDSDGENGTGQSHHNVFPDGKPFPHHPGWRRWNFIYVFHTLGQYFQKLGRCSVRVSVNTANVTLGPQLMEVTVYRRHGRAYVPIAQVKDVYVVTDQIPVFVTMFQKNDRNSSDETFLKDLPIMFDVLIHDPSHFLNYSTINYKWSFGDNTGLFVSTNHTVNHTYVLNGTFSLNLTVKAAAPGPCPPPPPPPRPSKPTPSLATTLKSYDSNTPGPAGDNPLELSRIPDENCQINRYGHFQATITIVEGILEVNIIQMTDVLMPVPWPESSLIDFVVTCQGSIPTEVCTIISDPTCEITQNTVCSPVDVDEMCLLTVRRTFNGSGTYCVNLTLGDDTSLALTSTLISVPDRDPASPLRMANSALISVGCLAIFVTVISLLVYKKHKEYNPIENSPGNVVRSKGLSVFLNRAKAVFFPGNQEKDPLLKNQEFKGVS


How the values were obtained:
[1] = target: T1, mouse GPNMB endogenously expressed on …; experiment: FACS titration, B16F10 cells
Experimental: Cell-based binding measurements were also performed to measure the apparent affinities of anti-GPNMB antibodies of the present disclosure to cell-surface expressed GPNMB. Serial dilutions of the monoclonal anti-GPNMB antibodies were added to 100,000 Freestyle293-huGPNMB+ or B16F10 cells and allowed to achieve binding equilibrium at 4° C. After addition of fluorescently labeled secondary antibody and brief washing steps, MFI values as a function of titrated antibody concentration was recorded via FACS analysis. Curves were fit using nonlinear regression analysis with Graphpad Prism 6 software.

[2] = target: T2, full-length untagged human GPNMB …; experiment: cell-based or functional assay
[3] = target: T2, full-length untagged human GPNMB …; experiment: FACS titration, FS293-huGPNMB+ cells
Experimental: Affinity matured anti-GPNMB antibodies of the present disclosure were examined to determine their ability to bind human and mouse GPNMB expressed on FS293-huGPNMB+ or B16F10 cells, respectively. Cell-based affinity measurements were performed to ascertain the apparent affinities of anti-GPNMB antibodies to cell-surface expressed GPNMB. Serial dilutions of anti-GPNMB antibodies of the present disclosure were added to 100,000 FS293-huGPNMB+ or B16F10 cells and allowed to achieve binding equilibrium at 4° C. After addition of fluorescently labeled secondary antibody and brief washing steps, MFI values as a function of titrated antibody concentration were recorded via FACS analysis. Equilibrium binding curves were fit using nonlinear regression analysis with Graphpad Prism 6 software.

Row | EC50 [1] [nM] | EC50 GCase [2] [nM] | EC50 Lyso Tracker [2] [nM] | Fold Decrease Lyso Tracker (max response at 1 µg/ml) [2] [fold] | Fold Increase GCase (max response at 1 µg/ml) [2] [fold] | EC50 [3] [nM] | Binder
1 | – | 0.166 | 1.2 | 0.731 | 1.34 | 0.203 | anti-GPNMB antibody GPN-86 (antibody, V domains shown) VH: QVQLQESGPGLVKPSETLSLTCTVSGISITTGNYRWSWIRQPPGKGLEWIGYIDYSGTITYNPSLKSRVTITRDTSKNQFSLELSSVTAADTAVYYCARDLTHWYFDVWGQGTLVTVSS VL: DIVMTQSPDSLAVSLGERATINCKSSRSVDYYGIGFLNWYQQKPGQPPKLLIYATSKQGSGVPDRFSGSGSGTDFTLTISSLQAEDVAVYYCQQQKEVPPTFGGGTKVEIK
2 | – | 0.898 | 1.18 | 0.757 | 1.35 | 0.167 | anti-GPNMB antibody GPN-89 (antibody, V domains shown) VH: QVQLQESGPGLVKPSETLSLTCTVSGISITTGNYRWSWIRQPPGKGLEWIGYIDYSGTITYNPSLKSRVTITRDTSKNQFSLELSSVTAADTAVYYCARDLTHWYYDVWGQGTLVTVSS VL: DIVMTQSPDSLAVSLGERATINCKSSRSVDYYGIGFLNWYQQKPGQPPKLLIYATSHQGSGVPDRFSGSGSGTDFTLTISSLQAEDVAVYYCQQQKEVPPTFGGGTKVEIK
3 | – | 0.685 | 1.58 | 0.761 | 1.37 | 0.148 | anti-GPNMB antibody GPN-90 (antibody, V domains shown) VH: QVQLQESGPGLVKPSETLSLTCTVSGISITTGNYRWSWIRQPPGKGLEWIGYIDYSGTITYNPSLKQRVTITRDTSKNQFSLELSSVTAADTAVYYCARDLTHWYFDVWGQGTLVTVSS VL: DIVMTQSPDSLAVSLGERATINCKSSRSVDYYGIGFLNWYQQKPGQPPKLLIYATSHQGSGVPDRFSGSGSGTDFTLTISSLQAEDVAVYYCQQQKEVPPTFGGGTKVEIK
4 | – | – | – | – | – | 0.24 | anti-GPNMB antibody GPN-91 (antibody, V domains shown) VH: QVQLQESGPGLVKPSETLSLTCTVSGISITTGNYRWSWIRQPPGKGLEWIGYIDYSGTITYNPSLKSRVTITRDTSKNQFSLELSSVTAADTAVYYCARDLTHWYFDVWGQGTLVTVSS VL: DIVMTQSPDSLAVSLGERATINCKSSRSVDYYGIGFLNWYQQKPGQPPKLLIYATSHQGSGVPDRFSGSGSGTDFTLTISSLQAEDVAVYYCQQQKERPPTFGGGTKVEIK
5 | – | 0.767 | 1.06 | 0.716 | 1.36 | 0.317 | anti-GPNMB antibody GPN-87 (antibody, V domains shown) VH: QVQLQESGPGLVKPSETLSLTCTVSGISITTGNYRWSWIRQPPGKGLEWIGYIDYSGTITYNPSLKSRVTITRDTSKNQFSLELSSVTAADTAVYYCARDLTHWYYDVWGQGTLVTVSS VL: DIVMTQSPDSLAVSLGERATINCKSSRSVDYYGIGFLNWYQQKPGQPPKLLIYATSKQGSGVPDRFSGSGSGTDFTLTISSLQAEDVAVYYCQQQKEVPPTFGGGTKVEIK
6 | – | – | – | – | – | 0.192 | anti-GPNMB antibody GPN-88 (antibody, V domains shown) VH: QVQLQESGPGLVKPSETLSLTCTVSGISITTGNYRWSWIRQPPGKGLEWIGYIDYSGTITYNPSLKSRVTITRDTSKNQFSLELSSVTAADTAVYYCARDLTHWYFDVWGQGTLVTVSS VL: DIVMTQSPDSLAVSLGERATINCKSSRSVDYYGIGFLNWYQQKPGQPPKLLIYATSHQGSGVPDRFSGSGSGTDFTLTISSLQAEDVAVYYCQQQKHVPPTFGGGTKVEIK

Second part, the binder before the results:

Row | Binder | EC50 [1] [nM] | EC50 GCase [2] [nM] | EC50 Lyso Tracker [2] [nM] | Fold Decrease Lyso Tracker (max response at 1 µg/ml) [2] [fold] | Fold Increase GCase (max response at 1 µg/ml) [2] [fold] | EC50 [3] [nM]
7 | anti-GPNMB antibody GPN-52 (antibody, human IgG1, V domains shown, chimeric) VH: DVQLQESGPGLVKPSQTVFLTCTVTGISITTGNYRWSWIRQFPGNKLEWIGYIYYSGTITYNPSLTSRITITRDTPKNEFFLEMNSLTAEDTATYYCARDLTHWYFDVWGTGTTVTVSS VL: not shown | 1.6 | – | – | – | – | –
8 | anti-GPNMB antibody GPN-35 (antibody, human IgG1, V domains shown, chimeric) VH: EVQLVESGGGSVRPGRSLKLSCAAAGFTFSDYYMTWVRQAPTKGLEWVASINHDGGGTYYRDSVKGRFTISRDNARSSLYLQMDSLRSEDTGTYYCTTRAGWHWGQGVMVTVSS VL: DIQMTQSPASLSASLGETVSIECLASEDIYNYLTWYQQKPGKSPQVLIYSASGLQDGVPSRFSGSGSGRQYSLKINGLESEDAATYFCLQDSEYPLTFGSGTKLEIK | 2.29 | – | – | – | – | –
9 | anti-GPNMB antibody GPN-83 (antibody, V domains shown) VH: QVQLQESGPGLVKPSETLSLTCTVSGISITTGNYRWSWIRQPPGKGLEWIGYIDYSGTITYNPSLKSRVTITRDTSKNQFSLELSSVTAADTAVYYCARDLTHWYFDVWGQGTLVTVSS VL: DIVMTQSPDSLAVSLGERATINCKSSRSVDYYGIGFVNWYQQKPGQPPKLLIYATSIQGSGVPDRFSGSGSGTDFTLTISSLQAEDVAVYYCQQQKEVPPTFGGGTKVEIK | – | 0.834 | 1.17 | 0.755 | 1.32 | 0.203
10 | anti-GPNMB antibody GPN-85 (antibody, V domains shown) VH: QVQLQESGPGLVKPSETLSLTCTVSGISITTGNYRWSWIRQPPGKGLEWIGYIDYSGTITYNPSLKQRVTITRDTSKNQFSLELSSVTAADTAVYYCARDLTHWYFDVWGQGTLVTVSS VL: DIVMTQSPDSLAVSLGERATINCKSSRSVDYFGIGFLNWYQQKPGQPPKLLIYATSHQGSGVPDRFSGSGSGTDFTLTISSLQAEDVAVYYCQQQKEVPPTFGGGTKVEIK | – | 2.2 | 1.39 | 0.755 | 1.31 | 0.385
11 | anti-GPNMB antibody GPN-84 (antibody, V domains shown) VH: QVQLQESGPGLVKPSETLSLTCTVSGISITTGNYRWSWIRQPPGKGLEWIGYIDYSGTITYNPSLKSRVTITRDTSKNQFSLELSSVTAADTAVYYCARDLTHWYYDVWGQGTLVTVSS VL: DIVMTQSPDSLAVSLGERATINCKSSRSVDYYGIGFVNWYQQKPGQPPKLLIYATSIQGSGVPDRFSGSGSGTDFTLTISSLQAEDVAVYYCQQQKEVPPTFGGGTKVEIK | – | – | – | – | – | 0.241
